Laboratory results taken from article PMC3280215.

B1: PGT 128 (format not stated for the experiment) (antibody, V domains shown)
VH: QPQLQESGPTLVEASETLSLTCAVSGDSTAACNSFWGWVRQPPGKGLEWVGSLSHCASYWNRGWTYHNPSLKSRLTLALDTPKNLVFLKLNSVTAADTATYYCARFGGEVLRYTDWPKPAWVDLWGRGTLVTVSS
VL: QSALTQPPSASGSPGQSITISCTGTSNNFVSWYQQHAGKAPKLVIYDVNKRPSGVPDRFSGSKSGNTASLTVSGLQTDDEAVYYCGSLVGNWDVIFGGGTKLTVL
B2: Fab PGT 128 (Fab, V domains shown)
VH: B1 VH
VL: B1 VL

Legend:
[1] = target: engineered outer domain mini-V3 (glycosylated gp120 outer domain construct containing a truncated V3 loop) (HIV-1)
[2] = target: soluble, partially deglycosylated 664G Env trimer (HIV-1); assay: negative-stain EM reconstruction

Binder | Kd [1] [µM] | fold less than the interaction with m8 [1] [fold] | stoichiometry N [2]
B1 | 0.046 | 8 | –
B2 | – | – | 3
